Positions count from the first letter of the chain named.
Legend:
Assay in all cases: cAMP activity assay (pCRE β-galactosidase reporter), transfected HEK293T cells
Format in all cases: cell-based
[1] = biological target: T1, RXFP1 (Homo sapiens, UniProt Q9HBX9); conditions: construct RXFP1 (wild type), ±s.e.m.
T1 construct: transiently transfected human embryonic kidney (HEK) 293T cells expressing full-length RXFP1 and mutants; expressed in transfected cells; host or cells: HEK293T
T1 sequence (Q9HBX9 1-757): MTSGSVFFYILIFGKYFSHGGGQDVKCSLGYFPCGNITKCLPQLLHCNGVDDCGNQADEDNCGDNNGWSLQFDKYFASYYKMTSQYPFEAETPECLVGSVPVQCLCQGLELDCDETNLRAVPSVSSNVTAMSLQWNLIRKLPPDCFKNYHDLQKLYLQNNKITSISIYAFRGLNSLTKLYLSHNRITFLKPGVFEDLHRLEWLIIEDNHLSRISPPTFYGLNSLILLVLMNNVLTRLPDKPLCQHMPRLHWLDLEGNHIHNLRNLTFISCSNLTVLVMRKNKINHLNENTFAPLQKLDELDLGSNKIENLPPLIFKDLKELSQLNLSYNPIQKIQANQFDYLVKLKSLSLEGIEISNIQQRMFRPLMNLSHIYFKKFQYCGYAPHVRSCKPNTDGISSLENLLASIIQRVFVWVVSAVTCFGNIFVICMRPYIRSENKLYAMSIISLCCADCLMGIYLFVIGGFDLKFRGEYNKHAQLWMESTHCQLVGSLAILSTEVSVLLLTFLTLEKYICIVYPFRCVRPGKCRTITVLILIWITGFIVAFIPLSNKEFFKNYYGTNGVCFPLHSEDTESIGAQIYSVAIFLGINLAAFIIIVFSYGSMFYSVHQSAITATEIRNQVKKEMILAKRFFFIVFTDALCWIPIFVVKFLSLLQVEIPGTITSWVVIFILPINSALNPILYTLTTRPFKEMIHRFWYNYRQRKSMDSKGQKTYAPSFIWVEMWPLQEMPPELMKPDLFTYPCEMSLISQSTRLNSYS
Summary of the method: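 Absorbance at 570 nm from β-galactosidase cleavage of chlorophenol red-β-D-galactopyranoside, expressed as percentage of the maximal 5 μM Forskolin response (mean ± s.e.m., ≥3 experiments in triplicate). Stimulant was H2 relaxin in minimal media containing 1% DMSO.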

[2] = biological target: T2, RXFP1 F50A (Homo sapiens, UniProt Q9HBX9, F72A); conditions: construct F50A, ±s.e.m.
T2 construct: expressed in transfected cells; host or cells: HEK293T
T2 sequence (Q9HBX9 23-757 F72A limits assumed): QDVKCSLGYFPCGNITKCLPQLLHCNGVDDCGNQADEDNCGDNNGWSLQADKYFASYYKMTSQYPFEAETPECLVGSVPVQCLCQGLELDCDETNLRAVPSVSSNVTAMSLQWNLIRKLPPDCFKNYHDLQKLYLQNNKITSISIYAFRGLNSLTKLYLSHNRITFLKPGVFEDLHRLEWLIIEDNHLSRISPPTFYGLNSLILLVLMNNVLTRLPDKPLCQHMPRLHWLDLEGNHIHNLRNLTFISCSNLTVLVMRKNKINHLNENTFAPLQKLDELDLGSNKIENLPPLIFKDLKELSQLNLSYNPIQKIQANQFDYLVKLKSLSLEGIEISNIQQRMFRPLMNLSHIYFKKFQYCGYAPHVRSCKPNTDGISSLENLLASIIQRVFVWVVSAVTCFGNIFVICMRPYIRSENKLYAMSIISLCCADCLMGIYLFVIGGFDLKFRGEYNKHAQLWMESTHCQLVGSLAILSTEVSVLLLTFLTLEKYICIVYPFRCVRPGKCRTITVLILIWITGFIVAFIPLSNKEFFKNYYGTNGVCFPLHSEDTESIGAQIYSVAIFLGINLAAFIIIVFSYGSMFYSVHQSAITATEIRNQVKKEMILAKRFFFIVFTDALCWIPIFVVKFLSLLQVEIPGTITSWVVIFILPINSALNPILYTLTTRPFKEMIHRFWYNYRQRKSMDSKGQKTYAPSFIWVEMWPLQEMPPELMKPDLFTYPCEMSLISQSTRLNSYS
Summary of the method: (§1)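 H2 relaxin dilutions in minimal media with 1% DMSO; 5 μM Forskolin as positive control, media/1% DMSO as negative. After freezing at −80 °C, cells lysed in pH 8.0 phosphate buffers and chlorophenol red-β-D-galactopyranoside added; absorbance read at 570 nm. Responses given as % of 5 μM Forskolin maximum.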

[3] = biological target: T3, RXFP1 Y57A (Homo sapiens, UniProt Q9HBX9, Y79A); conditions: construct Y57A, ±s.e.m.
T3 construct: cells expressing full-length RXFP1 and mutants; expressed in transfected cells; host or cells: HEK293T
T3 sequence (Q9HBX9 23-757 Y79A limits assumed): T2 sequence (Q9HBX9 23-757 F72A limits assumed) with A50F, Y57A
Summary of the method: as §1

[4] = percentage of maximum response to 5 μM Forskolin

With “H2 relaxin: two-chain 6-kDa peptide hormone structurally related to insulin; recombinant human gene-2 H2 relaxin provided by Corthera” the “H2 relaxin pEC50” value ([1]; cAMP reporter) was 10.97±0.05 (6), the “H2 relaxin Emax” value [1, 4] was 116.3±4.2 (6) % and the “H2 relaxin pEC50” value ([2]; cAMP reporter) was 9.45±0.07 (4). The “H2 relaxin Emax” value [2, 4] was 91.9±2.1 (4) %, the “H2 relaxin pEC50” value ([3]; cAMP reporter) was 10.93±0.10 (5) and the “H2 relaxin Emax” value [3, 4] was 126.7±8.46 (5) %.
